From the Immune Epitope Database (IEDB) come the findings set out here.

The target in one assay is HLA-A*02:01. The assay is described as follows: IEDB peptide-MHC binding, purified MHC/competitive/fluorescence; filed as Kd, often an IC50 or EC50 that approximates it; ≥ and ≤ were set here for values at or beyond the usual limits of such assays.
For assay [1], the target named is HLA-A*02:03. Described as above.
The target in assay [2] is HLA-A*02:11. The description is as above.
The target in assay [3] is HLA-A*02:12. Described as above.
For assay [4], the target named is HLA-A*02:16. Described as above.
Assay [5] addresses HLA-A*02:19. The description is as above.
Assay [6] deals with HLA-A*03:01. Described as above.
For a further assay, the target named is HLA-A*23:01. Described as above.
Assay [7] has as its target HLA-A*24:03. The description is as above.
In assay [8] the target is HLA-A*26:01. The description is as above.
The next assay concerns the target HLA-A*29:02. Described as above.
In assay [9] the target is HLA-A*68:02. The assay is described as above.
A further assay has as its target HLA-A*69:01. Described as above.
The target in another assay is HLA-B*18:01. Described as above.
In the next assay the target is HLA-B*27:03. Described as above.
A further assay deals with HLA-B*39:01. Described as above.
For a further assay, the target named is HLA-B*46:01. Described as above.
For the next assay, the target named is HLA-B*51:01. The assay is described as above.
The target of a further assay is HLA-B*57:01. The description is as above.
Another assay addresses HLA-B*27:05. Described as above.
The target in assay [10] is HLA-A*26:01. The assay can be described thus: IEDB peptide-MHC binding, purified MHC/direct/fluorescence; filed as Kd, often an IC50 or EC50 that approximates it; ≥ and ≤ were set here for values at or beyond the usual limits of such assays.
Another assay concerns the target HLA-C*14:02. The description is as above. As to conditions: source organism: Mycobacterium tuberculosis H37Rv.
Another assay addresses HLA-C*15:02. The description is as above. As to conditions: source organism: Mycobacterium tuberculosis H37Rv.
Another assay has as its target HLA-B*35:01. The assay is described as follows: IEDB peptide-MHC binding, purified MHC/competitive/fluorescence; filed as Kd, often an IC50 or EC50 that approximates it; ≥ and ≤ were set here for values at or beyond the usual limits of such assays.
The target of a further assay is HLA-A*01:01. The assay is described as follows: IEDB peptide-MHC binding, purified MHC/direct/fluorescence; filed as Kd, often an IC50 or EC50 that approximates it; ≥ and ≤ were set here for values at or beyond the usual limits of such assays.
Assay [11] has as its target HLA-A*02:03. The description is as above. To be noted: source organism: Ravn virus - Ravn, Kenya, 1987.
Assay [12] has as its target HLA-A*02:11. Described as above. To be noted: source organism: Ravn virus - Ravn, Kenya, 1987.
In assay [13] the target is HLA-A*02:12. Described as above. To be noted: source organism: Ravn virus - Ravn, Kenya, 1987.
In assay [14] the target is HLA-A*02:16. The assay is described as above. As to conditions: source organism: Ravn virus - Ravn, Kenya, 1987.
Assay [15] concerns the target HLA-A*02:19. The description is as above. As to conditions: source organism: Ravn virus - Ravn, Kenya, 1987.
In assay [16] the target is HLA-A*03:01. Described as above. As to conditions: source organism: Ravn virus - Ravn, Kenya, 1987.
In assay [17] the target is HLA-A*24:03. Described as above. To be noted: source organism: Ravn virus - Ravn, Kenya, 1987.
The target in assay [18] is HLA-A*68:02. Described as above. As to conditions: source organism: Ravn virus - Ravn, Kenya, 1987.
A further assay concerns the target HLA-B*58:01. The assay can be described thus: IEDB peptide-MHC binding, purified MHC/competitive/fluorescence; filed as Kd, often an IC50 or EC50 that approximates it; ≥ and ≤ were set here for values at or beyond the usual limits of such assays.
For a further assay, the target named is HLA-B*15:01. The description is as above.
The next assay concerns the target HLA-B*15:17. The assay is described as above. As to conditions: source organism: Giardia lamblia ATCC 50803.
A further assay addresses HLA-C*03:03. The assay can be described thus: IEDB peptide-MHC binding, purified MHC/direct/fluorescence; filed as Kd, often an IC50 or EC50 that approximates it; ≥ and ≤ were set here for values at or beyond the usual limits of such assays. As to conditions: source organism: Bacillus anthracis str. A0488.
Setting [19] is: source organism: Salmonella enterica subsp. enterica serovar Typhi str. CT18.
The mark [20] stands for this setting: source organism: Mycobacterium tuberculosis H37Rv.
The mark [21] stands for this setting: source organism: Sudan ebolavirus - Maleo (1979).
Where [22] appears, read: source organism: Zaire ebolavirus.
The mark [23] stands for this setting: source organism: Giardia lamblia ATCC 50803.
Where [24] appears, read: source organism: Mycobacterium tuberculosis variant bovis BCG str. Pasteur 1173P2.
The mark [25] stands for this setting: source organism: Bacillus anthracis str. A2012.
Setting [26] is: source organism: Escherichia coli 536.

Take KSKPRIHGY: the Kd with HLA-A*02:01 (setting [19]), in the assay with HLA-A*02:03 [1] (setting [19]), with HLA-A*02:11 [2] (setting [19]), with HLA-A*02:12 [3] (setting [19]), in the assay with HLA-A*02:16 [4] (setting [19]) and in the assay with HLA-A*02:19 [5] (setting [19]) was not below 20 µM throughout. In addition, the Kd with HLA-A*03:01 [6] (setting [19]), with HLA-A*23:01 (setting [19]), with HLA-A*24:03 [7] (setting [19]), with HLA-A*26:01 [8] (setting [19]), with HLA-A*29:02 (setting [19]) and in the assay with HLA-A*68:02 [9] (setting [19]) was not below 20 µM in each case. Also, the Kd with HLA-A*69:01 (setting [19]), with HLA-B*18:01 (setting [19]), with HLA-B*27:03 (setting [19]), with HLA-B*39:01 (setting [19]), in the assay with HLA-B*46:01 (setting [19]) and with HLA-B*51:01 (setting [19]) was not below 20 µM in each case. Besides, the Kd – broadly, a measure of binding affinity in units of concentration – with HLA-B*57:01 (setting [19]) stood at 0.169 µM.
In the case of GRITVSTKR, the Kd with HLA-B*27:05 (source organism: Influenza A virus (A/CHU/2-524/2005(H3N2))) is 0.315 µM.
As to YVRTNGASY, the Kd with HLA-A*26:01 [10] (source organism: Mycobacterium tuberculosis) is 0.026 µM; with HLA-C*14:02 it was 0.353 µM; in the assay with HLA-C*15:02, not below 20 µM; with HLA-B*35:01 (setting [20]), 0.0646 µM; in the assay with HLA-B*46:01 (setting [20]) it was 2.22 µM.
Take YSGNIVHRY: the Kd is 0.0896 µM with HLA-A*01:01 (setting [21]); not below 20 µM with HLA-A*02:03 [11]; not below 20 µM with HLA-A*02:11 [12]; not below 20 µM with HLA-A*02:12 [13]; not below 20 µM in the assay with HLA-A*02:16 [14]; not below 20 µM with HLA-A*02:19 [15]. Further, the Kd with HLA-A*03:01 [16] was not below 20 µM; with HLA-A*24:03 [17], not below 20 µM; in the assay with HLA-A*26:01 [10] (setting [21]) it was 1.55 µM; with HLA-A*68:02 [18] it was not below 20 µM; with HLA-A*02:01 (setting [22]), not below 20 µM; with HLA-A*69:01 (setting [22]), not below 20 µM. Also, the Kd with HLA-B*27:03 (setting [22]) is not below 20 µM; with HLA-B*39:01 (setting [22]), not below 20 µM; with HLA-B*46:01 (setting [22]) it was not below 20 µM; with HLA-B*51:01 (setting [22]), not below 20 µM; with HLA-B*58:01 (setting [22]) it was 0.0647 µM.
Consider DEYGPVFVE, for which the Kd with HLA-A*02:01 (setting [23]), with HLA-A*02:03 [1] (setting [23]), in the assay with HLA-A*02:11 [2] (setting [23]), with HLA-A*02:12 [3] (setting [23]), in the assay with HLA-A*02:16 [4] (setting [23]) and with HLA-A*02:19 [5] (setting [23]) was not below 20 µM throughout. Also, the Kd with HLA-A*03:01 [6] (setting [23]), in the assay with HLA-A*23:01 (setting [23]), with HLA-A*24:03 [7] (setting [23]), in the assay with HLA-A*26:01 [8] (setting [23]), in the assay with HLA-A*29:02 (setting [23]) and with HLA-A*68:02 [9] (setting [23]) was not below 20 µM each time. Moreover, the dissociation constant Kd was not below 20 µM in the assay with HLA-A*69:01 (setting [23]); not below 20 µM with HLA-B*15:01 (setting [23]); not below 20 µM with HLA-B*15:17; 0.0861 µM with HLA-B*18:01 (setting [23]); not below 20 µM with HLA-B*27:03 (setting [23]); not below 20 µM with HLA-B*39:01 (setting [23]). Also, the Kd in the assay with HLA-B*46:01 (setting [23]), in the assay with HLA-B*51:01 (setting [23]) and in the assay with HLA-B*57:01 (setting [23]) was not below 20 µM throughout.
With FVARIDLGY, the results for the Kd with HLA-A*01:01 (setting [24]), in the assay with HLA-A*26:01 [10] (setting [24]) and in the assay with HLA-B*35:01 (source organism: Mycobacterium tuberculosis C) were 0.603 µM, 0.0199 µM and 0.0142 µM, respectively.
FVAAGAFHM: the figures for the Kd with HLA-A*26:01 [8] (setting [25]) and with HLA-B*35:01 (setting [25]) were 0.278 µM and 0.0037 µM, respectively.
In the case of QMLPGYFRF, the equilibrium dissociation constant (Kd) in the assay with HLA-A*24:03 [7] (setting [26]) was 0.0002 µM; with HLA-B*15:01 (setting [26]), 0.223 µM; with HLA-B*58:01 (setting [26]), 0.046 µM.
As for KTNRTGLLM, in the assay with HLA-B*58:01 (source organism: Bacillus cereus G9241), the Kd stood at 0.0913 µM.
In the case of ITLPISASL, the Kd with HLA-C*03:03 was not above 0.001 µM; with HLA-B*58:01 (source organism: Bacillus anthracis str. A0488), 0.114 µM.
In the assay with HLA-B*27:05 (source organism: Bacillus cereus H3081.97), VRFANELSF gave a dissociation constant (Kd) of 0.0996 µM.
